Experimental data as given in patent US9283300B2, “Use of midkine protein and the protein-containing medical device” (GENERAL REGENERATIVES, LTD, priority 2009, dated 2016).

Columns and labels:
[1] = tested on: cartilage of normal New Zealand rabbit (articular, ear, tracheal, intervertebral disc); assay: rhMK effect on cartilage thickness of normal rabbits (subcutaneous injection, histology); format: in vivo; details: rhMK 92.5 μg/kg s.c. daily for two weeks
Protocol: Method. 8-weeks-old male C57BL/6J mice were injected subcutaneously with recombinant human MK (rhMK) or control saline. The injection volume was 0.5 ml, given daily for a week. The mice were grouped (3 animals per group): Saline (NS) group, rhMK groups injected with various dosages at 10, 33, 100, 300, 900 μg/kg. Rats were injected with saline or rhMK (175 μg/kg) daily for a week. Rabbits were injected with saline or rhMK (92.5 μg/kg) daily for two week. Histological observation and evaluation. The knee joint tissues of all mice and rats were fixed in 10% (v/v) formalin for 1 day, the tissues of rabbits were fixed for 2 days. The fixed tissues were subjected to demineralization in liquid (7% AlCl3.6H2O, 5% methanoic acid, 8.5% HCl) 4 days for mouse and rats issues, and 10 days for rabbit tissues. The demineralized tissues were subjected to dehydration by gradient ethanol, and treated for transparency by xylene, and embedded in wax. Tissue sections were prepared by the paraffin slicing machine (Laica), and stained with hemotoxylin/eosin or Safranine O/fast green staining. Slides were observed under microscope and analyzed. The thickness of cartilage tissues were measured by the vernier caliper on microscope. Three tissue sections from each sample were measured and analyzed statisticaly. The distance between surface of cartilage to subchondral tide line was measured at ½ position of femoral condyle to denote the thickness of knee-joint cartilage. The thickness of cartilage at central part of ears was measured to denote the thickness of ear elastic cartilage. The distance between out surface of annulus to nucleus of the intervertebral disc was measured to denote the thickness of thoracic intervertebral disc (T2-3). To verify the results of rhMk in mice, we performed the same experiments in vivo using commonly used laboratory animals, rat and rabbit. Rats were injected subcutaneously with rhMK at 175 μg/kg/day for one week, and rabbits was injected subcutaneously 92.5 ug/kg/day for two weeks. […] The injection dose of rhMK: mice was injected subcutaneously 300 μg/kg daily for a week; rats were injected 175 μg/kg daily for a week; and New Zealand rabbits was injected 92.5 μg/kg daily for two weeks. Three animals per group were analyzed.

[2] = tested on: partial-thickness injury of rabbit knee cartilage; assay: Partial-thickness cartilage defect of adult rabbit knee joint, intra-articular rhMK; format: in vivo, New Zealand white rabbits; details: adult rabbit knee cartilage partial-thickness injury model, 4 and 9 weeks after surgery, versus saline side
Protocol: Method. 9˜10-month-old male New Zealand white rabbits (3.0˜3.5 kg weight) were anesthetized with 3% pentobarbital sodium (30 mg/kg) by ear vein injection. After anesthesia, the skin was prepared on both sides of the knees. With conventional surgical sterilization and under sterile conditions, the inner side of the knees was cut to expose the femoral condyle surface. A hand-drill was used to make a partial-thickness cartilage injury of 3 mm in diameter on the femoral condyle surface. The partial-thickness injury was created by the criterion of no bleeding in the injured cartilage hole. The wound was sutured with 4-0 lines. 400,000 units penicillin was injected every day for one week to prevent the wound site infection. 24 h after the surgery, normal saline or rhMK was injected into the knee-articular cavity. Partial-thickness cartilage damages were created on both rabbit knees. One knee received 0.5 ml saline as control side, while 0.5 ml rhMK was given into the other knees as treatment side. The injections were given three times a week, for 2 weeks totally. The rabbits were kept in cage and allowed freedom of movement without the knee fixed. 4 and 9 weeks after the surgery, rabbits were sacrificed. The knee-joint cartilage tissues were removed for routine biopsy, H&E, and toluidine blue staining, and their histological changes were analyzed under microscope.

[3] = tested on: dedifferentiated rat chondrocytes in high-density culture; assay: Redifferentiation of dedifferentiated chondrocytes in high-density culture (Col2a1 expression); format: cell-based
Protocol: 5. High density culture of chondrocytes. The chondrocytes were harvested and suspended in DMEM containing 10% FBS. The cells were seeded at 4×10^5 cells/well into a 24-well plate, and experiment was divided into two groups: control group and experimental group (with 3 μg/m. 1 rhMK). When the cells reached confluence, they were cultured for additional 14 days. The culture medium was changed every two days. After the culture, some of the cells were collected for RNA extraction, and some were treated with trypsin and 0.2% type II collagenase at 37° C. for 30 min. The cells were cytospined onto glass slide and stored at −80° C. 6. Immunohistochemical staining. The cytospined glass slides covered with the cultured chondrocytes under various conditions were stored at −80° C. They were fixed in cold acetone for 10 min, treated sequentially in PBS for 5 min, in 3% H2O2 (in ddH2O) for 10 min at room temperature, and finally in ddH2O for 5 min. The slides were covered with 5% BSA (bovine serum albumine) for 20 min at room temperature. The excess serum was removed and the sections were covered with antibody against type II collagen (dilution 1:100) for 30 min at 37° C. […] RNA extraction and semi-quantitative PCR. […] PCR products were separated on 1.5% (w/v) agarose gels and quantified after staining with ethidium bromide in comparison with internal control gene expression of β-actin.

B1: rhMK: recombinant human midkine mature protein (SEQ ID NO.1) expressed in E. coli and purified by ion-exchange chromatography (protein, listed as Homo sapiens)
chain: MKKKDKVKKGGPGSECAEWAWGPCTPSSKDCGVGFREGTCGAQTQRIRCRVPCNWKKEFGADCKYKFENWGACDGGTGTKVRQGTLKKARYNAQCQETIRVTKPCTPKTKAKAKAKKGKGKD
Cartilage thickness, Ear [1]: 605.4 ± 5.4 µm
Cartilage thickness, Femoral condyle [1]: 612 ± 6.4 µm
Cartilage thickness, Intervertbral disc (T2-3) [1]: 1520 ± 54 µm
Cartilage thickness, Trachea [1]: 495 ± 6.5 µm
repair of injured cartilage (histology) [2]: repairs the injured cartilage with regenerated cartilage tissues
effect on Col2a1 re-expression ([3]; P3 fibrochondrocytes cultured in high-density): no effect
Col2a1 expression level in high-density cultures with rhMK ([3]; P6 articular chondrocyte and P3 auricular chondrocyte): significantly inhibited
